Test results from article PMC10980356 (The Plant Cell, 2023).

T1: MLO2-NLuc (A. thaliana, UniProt Q9SXB6 1-573)
T1 sequence: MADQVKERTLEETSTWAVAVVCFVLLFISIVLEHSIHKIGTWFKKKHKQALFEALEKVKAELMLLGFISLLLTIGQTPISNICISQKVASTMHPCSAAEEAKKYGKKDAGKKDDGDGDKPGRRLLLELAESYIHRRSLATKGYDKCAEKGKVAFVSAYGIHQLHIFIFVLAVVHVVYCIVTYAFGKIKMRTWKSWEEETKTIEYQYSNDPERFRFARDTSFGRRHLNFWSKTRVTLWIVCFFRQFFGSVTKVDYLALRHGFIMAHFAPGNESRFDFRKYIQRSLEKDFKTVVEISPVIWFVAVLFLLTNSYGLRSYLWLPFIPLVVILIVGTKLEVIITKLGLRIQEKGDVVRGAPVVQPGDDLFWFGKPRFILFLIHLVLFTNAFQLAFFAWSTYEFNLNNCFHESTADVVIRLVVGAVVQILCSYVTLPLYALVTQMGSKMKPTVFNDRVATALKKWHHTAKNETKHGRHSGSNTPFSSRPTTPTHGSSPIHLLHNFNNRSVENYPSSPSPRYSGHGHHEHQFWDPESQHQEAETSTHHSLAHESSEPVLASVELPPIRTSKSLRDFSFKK

T2: MLO12-NLuc (A. thaliana, UniProt O80961 1-576)
T2 sequence: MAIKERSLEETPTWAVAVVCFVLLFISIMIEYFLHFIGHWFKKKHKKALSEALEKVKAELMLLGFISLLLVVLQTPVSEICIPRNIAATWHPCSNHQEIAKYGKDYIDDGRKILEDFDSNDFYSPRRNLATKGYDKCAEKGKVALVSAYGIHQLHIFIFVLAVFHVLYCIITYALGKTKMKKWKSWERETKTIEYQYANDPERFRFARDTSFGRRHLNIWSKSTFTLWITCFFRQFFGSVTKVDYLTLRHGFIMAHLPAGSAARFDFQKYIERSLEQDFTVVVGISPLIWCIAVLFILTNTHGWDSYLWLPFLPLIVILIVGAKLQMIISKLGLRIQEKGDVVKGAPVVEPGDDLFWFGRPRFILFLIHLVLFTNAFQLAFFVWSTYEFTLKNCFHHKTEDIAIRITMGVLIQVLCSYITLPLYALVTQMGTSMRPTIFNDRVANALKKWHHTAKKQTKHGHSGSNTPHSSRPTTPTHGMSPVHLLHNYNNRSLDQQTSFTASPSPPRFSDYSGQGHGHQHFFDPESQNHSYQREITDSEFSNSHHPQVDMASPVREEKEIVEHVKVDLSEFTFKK

T3: MLO6-NLuc (A. thaliana, UniProt Q94KB7 1-583)
T3 sequence: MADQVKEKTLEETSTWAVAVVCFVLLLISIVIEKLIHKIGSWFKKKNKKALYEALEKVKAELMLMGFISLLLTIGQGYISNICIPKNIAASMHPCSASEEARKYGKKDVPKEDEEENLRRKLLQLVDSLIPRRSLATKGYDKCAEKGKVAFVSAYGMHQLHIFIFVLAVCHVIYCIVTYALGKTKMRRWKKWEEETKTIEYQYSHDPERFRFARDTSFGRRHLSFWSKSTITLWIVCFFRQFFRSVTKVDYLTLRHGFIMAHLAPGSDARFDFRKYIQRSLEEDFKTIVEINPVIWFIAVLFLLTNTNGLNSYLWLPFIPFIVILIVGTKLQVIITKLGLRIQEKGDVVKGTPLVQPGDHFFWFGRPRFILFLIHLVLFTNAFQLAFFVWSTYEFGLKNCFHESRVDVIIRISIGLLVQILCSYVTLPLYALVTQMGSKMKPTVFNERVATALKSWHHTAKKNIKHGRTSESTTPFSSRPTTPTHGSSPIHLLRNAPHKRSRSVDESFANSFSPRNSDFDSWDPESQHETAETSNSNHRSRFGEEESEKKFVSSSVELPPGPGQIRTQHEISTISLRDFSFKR


Columns and labels:
Test in all cases: split reporter
MLO2-NLuc = biological target: T1, MLO2-NLuc
MLO12-NLuc = biological target: T2, MLO12-NLuc
MLO6-NLuc = biological target: T3, MLO6-NLuc

Row | Binder | relative luminescence (in relation to the calmodulin positive control) (MLO2-NLuc) | relative luminescence (in relation to the calmodulin positive control) (MLO12-NLuc) | relative luminescence (in relation to the calmodulin positive control) (MLO6-NLuc)
1 | CLuc-EXO70H1 (natural protein) MAKMAKFSFFSSSSPKYHPSSPSSFTSFPASPLNQNFTQAMMEETVETADSVIRKWDPNTPSFTKIVSLFNHSRKEAKEFIRCVRDLRRAMHFLVSQDSQSPKLALAQTLMQIAMARLEKEFFQILSSNRDKLDPESVSGQSSISSNSEFEDVMGSDDDDESDNEMRKAGESITQVEKASAMVMSDLKAIAESMISCGYGKECVKIYKRVRKSIVDEGLSLLGIEIYKGSRFHRTDWVTLEHMIKNWIKAAKIGIATLFRGEKLLCDHVFSASNSTRESCFYEIANEAATNLFKFPEFVAKEKKSHERIFPLMDLQAAISDLWQDIEMIFHFDAVAGVKSQALTSLQKLKVSIHSALTDFESIIQKDTTKALTPGGGIHKLTRSTMNFISSLSKYSGVLSEILADHPLPRNTRLLESYVRAPISEDEQHNHALSVHFAWLILVLLCKLDTKAEHYKDVSLSYLFLANNLQIIIETVGSTPLRNLLGDDWLNKHEDKLCAYAGNYEIAAWSNVFMSLPEEPTDLSPEEAKIYFRRFHTAFEEAYMKQSSRVVPNAKLRDELKVSIAKKLVPEYREFYRKYLPMLGQERNIEILVRFKPDNLENYISDLFHGTPIHASSSFSSSSSSSSWKSLGCVSG | ~0.39 | ~0.37 | –
2 | CLuc-EXO70H4 (natural protein) MMTRKAMINICCVATTPSKYPPPPPLTLTPRQSLESAAIYGVIESAADIIERWNTETNTFAKVTCMFYENKPEAMMFIERVKDLQKTMDVLVSEDPNSERLLRSHKLMQIAMKRLQKEFYQILSMNRAYLDPESVSTRSSLTSARSSYSDFPDYVEDLDTIIELEEVSTNVMTDLKSIAECMIGSGYAKECLSIYKSIRKSIIDEGIYRLEVEKTSTGKVKKMSWEVMELKIRSWLKAVKVSMETLFKGEKILCDHVFESSDAIRESCFSDISRDGALLLFGFPEIINTKTSKKHSPPEKVFRLLDMYTAIAGNWQAIESIFSFDSISVVRSLALKSLISLSESIRSLLVEFESGIQKDSSKVVVPGGGVHPLTISVMDHLSLLADYSNVLVDILAGSPPPDRSLLPESYFNVSESDDSPSSELTIRFAWIILVLLCKIDRKSIHYKDFSIQYLFLTNNLQHVVSRARSSNLKNLLGEDWITRHFAKMRQFAGSYKRLAWGPVVATLPENRTVEMTPEEVKERFEKFSESFENAYSKHSVCVVADPNIRDEIKVSISRKLVPIYREFYNTRGSVILGEGDGARNLNSVVRFTPEDIENYLSDLFREKGSSGNSSASSPSSCRSRQSMS | ~0.4 | – | ~0.67
3 | CLuc-EXO70B2 (natural protein) MAEAGDENLYAAARDIARALGKDPSAAGDILQILSGYGASGNRGGDPRPTPSRGGSNVNFDRALTSLERQISSYIVEDRPIWSDPVDSRTFLDSVDELLAIAGDLRSMAGDKSVAVCQSRADELIQQVMFRLQEEFGFVMDRAPDSFDSDDEFPGEEDNDTSDGVIVARPITDYKIVIEALQSSVIGDLNAIAVRMVAGGFAKECSRVYSSRRREFLEESLSRLHLRGLSMEEVQESPWQDLEDEIDRWIKAVTLIFHVFFPSERLLCDRVFSDLPVSSVTDLSFMEVCRGTTTQLLNFADAIALGSRLPERLFKVVDLYEAMQDLIPKMETLFSDRYCSPLRHEALAIHKRLGEAIRGIFMELENLIRRDPPKTAFPGGGIHPITRYVMNYLRAACKSRQSLEQILDQTGNETGSDTRPLSVQIIWVLELLESNLEGKKRTYRDPSLCFLFMMNNDKYILDKAKDNELGLVLGEDWIVKHAAKLRQYHSNYRRSSWNQVVGLLRTDGPYPKLVENLRLFKSQFDEVCKVQSQWVVSDGQLREELRSSVAGIVSPAYSNFIRRLKESPEINGRRGEPFIPYTVEDVEFIIKRLFKESSS | ~0.56 | – | –
